Source: patent publication US20200181262A1 (published 2020)
Positions count from the first letter of the chain named. Values joined by “and” are separate entries in the source; they are usually repeats but may differ in a detail not shown here. Identical values can stand only once. Blank lines part the entries; values can stand above or below the binder they belong to.

Key:
[1] = target: T1, FcRn (analyte of the BIACORE studies of Tables 9-11, tables titled anti-human FcRn mAbs) (human, UniProt P55899 24-290; P61769 21-119); experiment: SPR, antibody captured on protein A, FcRn 50-0.02 nM, 1:1 model
T1 construct: also called analyte (FcRn)
Experimental: For kinetic analysis, a 2-fold dilution range was selected from 50-0.02 nM FcRn. The association phase of FcRn analyte was monitored for 450 seconds, and dissociation was measured for 1500 seconds, at 40 μl/min. Fc1 was a reference channel and was subtracted from other flow cells to correct for non-specific binding. Kinetic values are based on a 1:1 binding model (Table 11).

[2] = target: T2, monomeric His-tagged human FcRn (hFcRn) (JTA) (human, UniProt P55899 24-290; P61769 21-119, limits assumed); experiment: SPR (Biacore 3000), mAb amine-coupled, His-tagged hFcRn injected, 1:1 Langmuir, pH 6.0
T2 construct: In-house soluble His-tagged FcRn; also called monomeric human FcRn produced in-house; not shown: His tag

[3] = target: T2, monomeric His-tagged human FcRn (hFcRn) …; experiment: SPR (Biacore 3000), mAb amine-coupled, His-tagged hFcRn injected, 1:1 Langmuir, pH 7.4
Experimental: The coupling was performed by injecting 3 μg/ml of each protein into 10 mM sodium acetate, pH 4.5 (GE Healthcare), using the amine coupling kit (GE Healthcare). […] All SPR experiments were conducted at 25° C. with a flow rate of 40 μl/min. Binding data were zero-adjusted, and the reference cell value subtracted. The Langmuir 1:1 ligand binding model provided by the BIAevaluation software (version 4.1) was used to determine the binding kinetics. The closeness of the fit is described by the statistical value χ².

[4] = target: T1, FcRn (analyte of the BIACORE studies of …); experiment: SPR (BIACORE), antibody immobilized on CM5, FcRn injected, 1:1 Langmuir, pH 6.0
Experimental: (§1) Antibodies were diluted into 10 mM NaAc, pH 4.5, and immobilized onto BIACORE® CM5 chips to RU levels of approximately 500-1000. Analysis was performed by injection of FcRn at concentrations of 12-800 nM in 1×PBS-P at pH 7.4 or pH 6.0.

[5] = target: T1, FcRn (analyte of the BIACORE studies of …); experiment: SPR (BIACORE), antibody immobilized on CM5, FcRn injected, 1:1 Langmuir, pH 7.4
Experimental: as §1

[6] = target: T1, FcRn (analyte of the BIACORE studies of …); experiment: SPR (BIACORE), antibody captured on protein A CM5 chip, FcRn analyte
Text: Antibodies were captured on a CM5 chip coated with protein A and analyte (FcRn) flowed over the surface.

[7] = target: human FcRn as expressed in cells (human whole blood; hFcRn transgenic mice) (human, UniProt P55899 24-365; P61769 21-119); experiment: cell-based or functional assay
[8] = target: T2, monomeric His-tagged human FcRn (hFcRn) …; experiment: SPR (Biacore 3000), H3Vk2 amine-coupled, hFcRn (JTA) injected, 1:1 Langmuir, pH 7.4
Experimental: (§2) All SPR experiments were conducted at 25° C. with a flow rate of 40 μl/min. Binding data were zero-adjusted, and the reference cell value subtracted. The Langmuir 1:1 ligand binding model provided by the BIAevaluation software (version 4.1) was used to determine the binding kinetics. The closeness of the fit is described by the statistical value χ2.

[9] = target: T2, monomeric His-tagged human FcRn (hFcRn) …; experiment: SPR (Biacore 3000), mAb amine-coupled, His-tagged hFcRn (JTA) injected, 1:1 Langmuir, pH 6.0
Experimental: In a further study, surface plasmon resonance (SPR) was conducted using a Biacore 3000 instrument (GE Healthcare) with CM5 sensor chips coupled with antibodies (˜550 resonance units (RU)) using amine-coupling chemistry as described by the manufacturer. […] All SPR experiments were conducted at 25° C. with a flow rate of 40 μl/min. Binding data were zero-adjusted, and the reference cell value subtracted. The Langmuir 1:1 ligand binding model provided by the BIAevaluation software (version 4.1) was used to determine the binding kinetics. The closeness of the fit is described by the statistical value χ2.

[10] = target: T3, cynomolgus FcRn (cFcRn) obtained from SINO Biological Inc (cynomolgus monkey, UniProt Q8SPV9 24-297; Q8SPW0 21-119); experiment: SPR (Biacore 3000), H3Vk2 amine-coupled, cynomolgus FcRn (SINO) injected, 1:1 Langmuir, pH 7.4
T3 construct: also called pFcRn (SINO); pFeltn (SINO)
T3 sequence (Q8SPV9 24-297 limits assumed, chain 1 of 2): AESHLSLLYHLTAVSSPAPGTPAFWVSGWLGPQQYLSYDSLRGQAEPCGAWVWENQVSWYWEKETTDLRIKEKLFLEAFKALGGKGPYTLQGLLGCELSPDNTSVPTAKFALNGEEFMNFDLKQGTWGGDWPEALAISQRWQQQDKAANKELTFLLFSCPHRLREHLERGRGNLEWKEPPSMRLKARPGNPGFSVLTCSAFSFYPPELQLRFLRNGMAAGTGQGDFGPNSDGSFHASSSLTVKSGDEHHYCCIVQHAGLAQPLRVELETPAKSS
T3 sequence (Q8SPW0 21-119 limits assumed, chain 2 of 2): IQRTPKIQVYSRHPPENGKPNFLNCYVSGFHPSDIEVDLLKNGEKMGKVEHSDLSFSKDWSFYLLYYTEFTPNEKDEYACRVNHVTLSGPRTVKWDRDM
Experimental: as §2

[11] = target: T4, recombinant human FcRn (Sino Biological Inc. Cat. No. CT009-H08H) (human, UniProt P55899 24-290; P61769 21-119); experiment: scFv competition ELISA vs biotinylated parent murine antibody, captured FcRn, pH 6
T4 construct: Bought protein; also called hFcRn (SINO); immobilized FcRn
Experimental: (§3) A total of about 60 scFv antibodies from the VH CDR3 and VL CDR3 libraries were selected for further study. The scFv antibodies were prepared from bacterial periplasmic extracts, and tested by competition ELISA at pH 6.0 and pH 7.4. […] As in the ELISA used to test humanized variants, a 96 well flat bottom microtitre plate was pre-coated with 1 μg/ml of an FcRn antibody specific for an albumin-binding epitope distinct from the Fc-binding region. Binding was determined at pH 7.4 and pH 6.0.

[12] = target: T4, recombinant human FcRn (Sino Biological …); experiment: scFv competition ELISA vs biotinylated parent murine antibody, captured FcRn, pH 7.4
Experimental: as §3

B1: G9VH1_Vκ2 antibody (antibody, V domains shown)
VH: QVQLVQSGAELKKPGASVKLSCKASGYTFTSYGISWVKQATGQGLEWIGEIYPRSGNTYYNEKFKGRATLTADKSTSTAYMELRSLRSEDSAVYFCARSTTVSPPRVWGTGTTVTVSS
VL: DIQMTQSPSSLSASVGDRVTITCKASDHINNWLAWYQQKPGQAPRLLISGATSLETGVPSRFSGSGTGKDYTLTISSLQPEDFATYYCQQYWSTPYTFGGGTKVEIK
notes: also called G9Vκ2
Kd [1]: 0.39 nM and 0.4 nM | kon [1]: 318000 M⁻¹ s⁻¹ | Kd [2]: 7.4 nM | kon [2]: 85000 M⁻¹ s⁻¹ | Kd [3]: 4.9 nM | kon [3]: 61000 M⁻¹ s⁻¹

B3: VH1_G9/Vκ2_E8 IgG4 (antibody, V domains shown)
VH: B1 VH
VL: B1 VL with P80T, Q89H, W92Y
notes: bivalent IgG4, kappa; also called G9VH1_E8Vκ2; G9VH1E8Vκ2
Kd [6]: 0.84 nM | Kd [4]: 0.6 nM

B4: H3VH1_Vκ2 antibody (anti-FcRn mAb H3Vκ2) (antibody, V domains shown)
VH: B1 VH with S103R, R106G, V107I
VL: B1 VL
notes: also called H3Vk2; H3VK2
plasma concentration of HuLys11 (human IgG1) in hFcRn transgenic mice after 20 mg/kg [7]: 3 fold | Kd [8]: 4.6 nM | Kd [2]: 3.8 nM | Kd [3]: 5.1 nM | Kd [9]: 3.8 nM | Kd [10]: 11.9 nM

B5: H1VH1_Vκ2 antibody (antibody, IgG4, V domains shown)
VH: B1 VH with R106P, V107L
VL: B1 VL
Kd [1]: 0.32 nM | koff [1]: 9.28e-05 s⁻¹ | kon [1]: 289000 M⁻¹ s⁻¹

B6: VH1_A8/Vκ2_E8 IgG4 (antibody, V domains shown)
VH: B1 VH with R87K, R106A, V107H
VL: B1 VL with P80T, Q89H, W92Y
notes: bivalent IgG4, kappa; also called A8VH1E8Vκ2; A8/E8VK2
Kd [4]: 1.4 nM | koff [4]: 0.000438 s⁻¹ | kon [4]: 319000 M⁻¹ s⁻¹ | Kd [5]: 18.2 nM | koff [5]: 0.000679 s⁻¹ | kon [5]: 43800 M⁻¹ s⁻¹

B7: H1 VH1 scFv with humanized parental Vκ1 (scFv)
scFv: QVQLVQSGAELKKPGASVKLSCKASGYTFTSYGISWVKQATGQGLEWIGEIYPRSGNTYYNEKFKGRATLTADKSTSTAYMELRSLRSEDSAVYFCARSTTVSPPPLWGTGTTVTVSSGGGGSGGGGSGGGGSDIQMTQSPSYLSASVGDRVTITCKASDHINNWLAWYQQKPGQAPRLLISGATSLETGVPSRFSGSGTGKDYTLTISSLQTEDFATYYCQQYWSTPYTFGGGTKVEIK
notes: from bacterial periplasmic extracts
fold decrease in IC50 (relative to humanized parent scFV) [11]: 17.1 fold | fold decrease in IC50 (relative to humanized parent scFV) [12]: 36.4 fold

B9: A4 VH1 scFv with humanized parental Vκ1 (scFv)
scFv: B7 scFv with P105A, P106D, L107F, W108R
fold decrease in IC50 (relative to humanized parent scFV) [11]: 5.04 fold | fold decrease in IC50 (relative to humanized parent scFV) [12]: 7.18 fold

B14: A7 VH1 scFv with humanized parental Vκ1 (scFv)
scFv: B7 scFv with L107I
fold decrease in IC50 (relative to humanized parent scFV) [11]: 17 fold | fold decrease in IC50 (relative to humanized parent scFV) [12]: 20 fold

B15: F7 VH1 scFv with humanized parental Vκ1 (scFv)
scFv: B7 scFv with S103A
fold decrease in IC50 (relative to humanized parent scFV) [11]: 16.4 fold | fold decrease in IC50 (relative to humanized parent scFV) [12]: 26.4 fold

B17: H4 VH1 scFv with humanized parental Vκ1 (scFv)
scFv: B7 scFv with P104A, P106G, L107V
fold decrease in IC50 (relative to humanized parent scFV) [11]: 6.5 fold | fold decrease in IC50 (relative to humanized parent scFV) [12]: 9.29 fold

Next, values leading:

Kd [4]: 1.3 nM | koff [4]: 0.000298 s⁻¹ | kon [4]: 229000 M⁻¹ s⁻¹ | Kd [5]: 13.1 nM | koff [5]: 0.000544 s⁻¹ | kon [5]: 54300 M⁻¹ s⁻¹
B2: VH1_G4/Vκ2_E8 IgG4 (antibody, V domains shown)
VH: B1 VH with R106H, V107L
VL: B1 VL with P80T, Q89H, W92Y
notes: bivalent IgG4, kappa; also called G4VH1E8Vκ2

fold decrease in IC50 (relative to humanized parent scFV) [11]: 21.7 fold | fold decrease in IC50 (relative to humanized parent scFV) [12]: 25.3 fold
B8: G9 VH1 scFv with humanized parental Vκ1 (scFv)
scFv: B7 scFv with P106R, L107V

fold decrease in IC50 (relative to humanized parent scFV) [11]: 14.2 fold | fold decrease in IC50 (relative to humanized parent scFV) [12]: 23.8 fold
B10: H2 VH1 scFv with humanized parental Vκ1 (scFv)
scFv: B7 scFv with S103A, P106A, L107H

fold decrease in IC50 (relative to humanized parent scFV) [11]: 3.65 fold | fold decrease in IC50 (relative to humanized parent scFV) [12]: 16.8 fold
B11: E4 VH1 scFv with humanized parental Vκ1 (scFv)
scFv: B7 scFv with S103H, P105D, P106H, L107N

fold decrease in IC50 (relative to humanized parent scFV) [11]: 16.4 fold | fold decrease in IC50 (relative to humanized parent scFV) [12]: 37.4 fold
B12: E7 VH1 scFv with humanized parental Vκ1 (scFv)
scFv: B7 scFv with L11P, P106H

fold decrease in IC50 (relative to humanized parent scFV) [11]: 18.6 fold | fold decrease in IC50 (relative to humanized parent scFV) [12]: 24.4 fold
B13: C4 VH1 scFv with humanized parental Vκ1 (scFv)
scFv: B7 scFv with S103A, P106R

fold decrease in IC50 (relative to humanized parent scFV) [11]: 18.9 fold | fold decrease in IC50 (relative to humanized parent scFV) [12]: 29 fold
B16: G4 VH1 scFv with humanized parental Vκ1 (scFv)
scFv: B7 scFv with P106H

fold decrease in IC50 (relative to humanized parent scFV) [11]: 17.7 fold | fold decrease in IC50 (relative to humanized parent scFV) [12]: 30.8 fold
B18: G7 VH1 scFv with humanized parental Vκ1 (scFv)
scFv: B7 scFv with S103A, P106G, L107H
